Substitutions are numbered along the chain they refer to. Read-outs that look alike come from different tables or passages of the source.
Columns and labels:
[1] = target: native firefly luciferase (Photinus pyralis, UniProt P08659); conditions: cited from earlier work
LucPpe2m90 = type: biochemical, Photuris pennsylvanica; conditions: for Half life: buffer; for Average rlu: 37° C.
Method: (§1) The stability of a reagent composition composition comprising LucPpe2 luciferase was compared to a reagent composition comprising LucPpe2m90 and a reagent composition comprising LucPpe2m146, in the presence and absence of 0.1% DTAB. These mutant luciferases are thermostable; they are described in detail in PCT application PCT/US99/30925, filed Dec. 22, 1999.
(§2) Each enzyme was diluted to 0.05 mg/ml to a final volume of 1.0 ml in either 25 mM HEPES, pH 8.0 or 20 mM citrate, pH 6.0; both with 100 mM NaCl, 1 mM EDTA, 0.1% gelatin and 5% glycerol. In half of the samples, 0.1% DTAB was added. The enzyme solutions (“reagent compositions”) were incubated at 37° C.
(§3) At various timepoints, 10 μl of enzyme solution was transferred to a 96-well luminometer plate in triplicate. Then, in triplicate, 100 μl room temperature luciferase assay reagent (1 mM luciferin, 0.2 mM ATP, 10 MM MgSO4 in 50 mM HEPES, pH 8.0) was added to each 10 μl enzyme solution aliquot, mixed and immediately read in a Dynex MLX microtiter plate luminometer. The ATP in the luciferase assay reagent is at a saturating concentration. The average rlu values are reported, as are the half lives of the reagent composition activity as measured by luminescence (Table P). Half-life was calculated using the formula log (0.5)/slope of the data plotted as time (x axis) versus log value of rlu. The time zero is actually about 2-3 minutes after the mixing of enzyme and substrate; this could account for the lower numbers in the presence of DTAB at time 0 than in the absence of DTAB.

LucPpe2m146 = type: biochemical, Photuris pennsylvanica; conditions: for Half life: buffer; for Average rlu: 37° C.
Method: as §1, §2, §3

Sequence of native firefly luciferase (P08659 whole entry): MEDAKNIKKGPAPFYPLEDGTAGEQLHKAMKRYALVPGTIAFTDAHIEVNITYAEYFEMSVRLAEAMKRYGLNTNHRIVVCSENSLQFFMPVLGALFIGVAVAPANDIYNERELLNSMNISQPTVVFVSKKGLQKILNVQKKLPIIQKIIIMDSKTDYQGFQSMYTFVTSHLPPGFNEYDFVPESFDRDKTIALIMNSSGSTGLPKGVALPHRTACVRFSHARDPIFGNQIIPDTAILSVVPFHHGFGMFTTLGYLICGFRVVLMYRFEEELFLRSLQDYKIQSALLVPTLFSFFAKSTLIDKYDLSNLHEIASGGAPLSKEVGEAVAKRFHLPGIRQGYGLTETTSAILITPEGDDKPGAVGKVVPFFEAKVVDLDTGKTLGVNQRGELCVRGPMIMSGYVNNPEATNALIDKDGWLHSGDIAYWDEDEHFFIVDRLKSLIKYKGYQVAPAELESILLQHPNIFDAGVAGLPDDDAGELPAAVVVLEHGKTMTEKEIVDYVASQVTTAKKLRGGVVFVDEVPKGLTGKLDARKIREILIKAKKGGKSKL

Molecule: Cc1cc(C(C)(C)CC(C)(C)C)ccc1OCCOCC[N+](C)(C)Cc1ccccc1.[Cl-] [methylbenzethonium chloride]
- effect on native firefly luciferase [1]: inactivated

Molecule: benzalkonium chloride
- effect on native firefly luciferase [1]: inactivated

B1: LucPpe2m90: mutant luciferase derived from LucPpe2, SEQ ID NO:2 (protein)
chain: MADKNILYGPEPFYPLEDGTAGEQMFDALSRYADIPGCIALTNAHTKENVLYEEFLKLSCRLAESFKKYGLKQNDTIAVCSENGLQFFLPVIASLYLGIIVAPVNDKYIERELIHSLGIVKPRIVFCSKNTFQKVLNVKSKLKSIETIIILDLNEDLGGYQCLNNFISQNSDSNLDVKKFKPYSFNRDDQVALIMFSSGTTGLPKGVMLTHKNIVARFSLAKDPTFGNAINPTTAILTVIPFHHGFGMMTTLGYFTCGFRVVLMHTFEEKLFLQSLQDYKVESTLLVPTLMAFLAKSALVEKYDLSHLKEIASGGAPLSKEIGEMVKKRFKLNFVRQGYGLTETTSAVLITPKGDAKPGSTGKIVPFHAVKVVDPTTGKILGPNEPGELYFKGPMIMKGYYNNEEATKAIIDNDGWLRSGDIAYYDNDGHFYIVDRLKSLIKYKGYQVAPAEIEGILLQHPYIVDAGVTGIPDEAAGELPAAGVVVQTGKYLNEQIVQDYVASQVSTAKWLRGGVKFLDEIPKGSTGKIDRKVLRQMFEKHTNG
modifications: Mutant of LucPpe2 luciferase
- Half life (LucPpe2m90; pH 6): 8.508 h
- Half life (LucPpe2m90; pH 8): 8.125 h
- Average rlu (LucPpe2m90; pH 6.0 + 0.1% DTAB, 0 min): 16263.53 rlu
- Average rlu (LucPpe2m90; pH 6.0 + 0.1% DTAB, 59 min): 15535.4 rlu
- Average rlu (LucPpe2m90; pH 6.0 + 0.1% DTAB, 123 min): 13421.5 rlu
- Average rlu (LucPpe2m90; pH 6.0 + 0.1% DTAB, 183 min): 14061.8 rlu
- Average rlu (LucPpe2m90; pH 6.0 + 0.1% DTAB, 239 min): 11924.03 rlu
- Average rlu (LucPpe2m90; pH 6.0, 0 min): 20031.03 rlu
- Average rlu (LucPpe2m90; pH 6.0, 59 min): 18453 rlu
- Average rlu (LucPpe2m90; pH 6.0, 123 min): 15966.03 rlu
- Average rlu (LucPpe2m90; pH 6.0, 183 min): 15546.4 rlu
- Average rlu (LucPpe2m90; pH 6.0, 239 min): 14519.63 rlu
- Average rlu (LucPpe2m90; pH 8.0 + 0.1% DTAB, 0 min): 22401.4 rlu
- Average rlu (LucPpe2m90; pH 8.0 + 0.1% DTAB, 59 min): 15332.67 rlu
- Average rlu (LucPpe2m90; pH 8.0 + 0.1% DTAB, 123 min): 12383.75 rlu
- Average rlu (LucPpe2m90; pH 8.0 + 0.1% DTAB, 183 min): 11271.25 rlu
- Average rlu (LucPpe2m90; pH 8.0 + 0.1% DTAB, 239 min): 9551.65 rlu
- Average rlu (LucPpe2m90; pH 8.0, 0 min): 15795.17 rlu
- Average rlu (LucPpe2m90; pH 8.0, 59 min): 15510.77 rlu
- Average rlu (LucPpe2m90; pH 8.0, 123 min): 13735.67 rlu
- Average rlu (LucPpe2m90; pH 8.0, 183 min): 13271.05 rlu
- Average rlu (LucPpe2m90; pH 8.0, 239 min): 11115.13 rlu

B2: LucPpe2m146: mutant luciferase derived from LucPpe2, SEQ ID NO:4 (protein)
chain: B1 chain with D34A, G84S, L193S, L220I, T234S, F367L, F538L
modifications: Mutant of LucPpe2 luciferase
- Half life (LucPpe2m146; pH 6): 13.68 h
- Half life (LucPpe2m146; pH 8): 9.925 h
- Average rlu (LucPpe2m146; pH 6.0 + 0.1% DTAB, 0 min): 5945.34 rlu
- Average rlu (LucPpe2m146; pH 6.0 + 0.1% DTAB, 61 min): 5989.65 rlu
- Average rlu (LucPpe2m146; pH 6.0 + 0.1% DTAB, 125 min): 3754.71 rlu
- Average rlu (LucPpe2m146; pH 6.0 + 0.1% DTAB, 183 min): 4839.58 rlu
- Average rlu (LucPpe2m146; pH 6.0 + 0.1% DTAB, 237 min): 4951.0 rlu
- Average rlu (LucPpe2m146; pH 6.0, 0 min): 7685.01 rlu
- Average rlu (LucPpe2m146; pH 6.0, 61 min): 7077.29 rlu
- Average rlu (LucPpe2m146; pH 6.0, 125 min): 5507.01 rlu
- Average rlu (LucPpe2m146; pH 6.0, 183 min): 6144.94 rlu
- Average rlu (LucPpe2m146; pH 6.0, 237 min): 6471.76 rlu
- Average rlu (LucPpe2m146; pH 8.0 + 0.1% DTAB, 0 min): 6445.57 rlu
- Average rlu (LucPpe2m146; pH 8.0 + 0.1% DTAB, 61 min): 6214.56 rlu
- Average rlu (LucPpe2m146; pH 8.0 + 0.1% DTAB, 125 min): 4018.92 rlu
- Average rlu (LucPpe2m146; pH 8.0 + 0.1% DTAB, 183 min): 4020.56 rlu
- Average rlu (LucPpe2m146; pH 8.0 + 0.1% DTAB, 237 min): 3734.59 rlu
- Average rlu (LucPpe2m146; pH 8.0, 0 min): 6652.84 rlu
- Average rlu (LucPpe2m146; pH 8.0, 61 min): 6577.91 rlu
- Average rlu (LucPpe2m146; pH 8.0, 125 min): 5192.73 rlu
- Average rlu (LucPpe2m146; pH 8.0, 183 min): 5476.86 rlu
- Average rlu (LucPpe2m146; pH 8.0, 237 min): 5174.22 rlu

Reference: US20030104507A1, “Method for detection of ATP” (priority 2001, published 2003)
